Measurements: patent publication US20180030137A1 (ADURO BIOTECH HOLDINGS EUROPE B V, published 2018)
Residue numbers refer to the chain shown, from its start. In names and notes the source's numbering stands. Like-named read-outs stand apart in the source and are kept apart here.

B1: H4H7798N (antibody, from another filing, human IgG4, V domains shown)
VH: EVQLLESGGVLVQPGGSLRLSCAASGFTFSNFGMTWVRQAPGKGLEWVSGISGGGRDTYFADSVKGRFTISRDNSKNTLYLQMNSLKGEDTAVYYCVKWGNIYFDYWGQGTLVTVSS
VL: DIQMTQSPSSLSASVGDSITITCRASLSINTFLNWYQQKPGKAPNLLIYAASSLHGGVPSRFSGSGSGTDFTLTIRTLQPEDFATYYCQQSSNTPFTFGPGTVVDFRR
B2: hPD1.29H5_A9P_I28T_T31S_L4 (antibody, V domains shown)
VH: EVQLVQSGPEVKKPGASVKVSCKASGYTFTSYYIHWVKQAPGKGLEWIGWIFPGDVSTQYNEKFQDKATITVDKSASTAYMQLSSLRSEDTAVYYCTREAYDYAVYWGQGTLVTVSS
VL: DIQMTQAPSSLSASVGDRVTITCKASQNVDTNVAWFQQKPGKAPKSLIFSASYRYSGVPSRFSGSGSGTDFTLTISSLQPEDFATYYCQQYNNYPFTFGGGTKLEIK
notes: Mutant of hPD1.29H5L4 (human IgG4 S241P kappa format of the parent)
B3: hPD1.29H5_A9P_K12V_I28T_T31S_L4 (antibody, V domains shown)
VH: B2 VH with K12V
VL: B2 VL
notes: as for B2
B4: hPD1.29H5_A9P_K12V_L4 (antibody, V domains shown)
VH: B2 VH with K12V, T28I, S31T
VL: B2 VL
notes: as for B2
B5: hPD1.29H5_A9P_L4 (antibody, V domains shown)
VH: B2 VH with T28I, S31T
VL: B2 VL
notes: as for B2
B6: hPD1.29H5_I28D_L4 (antibody, V domains shown)
VH: B2 VH with P9A, T28D, S31T
VL: B2 VL
notes: as for B2
B7: hPD1.29H5_I28D_T30D_L4 (antibody, V domains shown)
VH: B2 VH with P9A, T28D, T30D, S31T
VL: B2 VL
notes: as for B2
B8: hPD1.29H5_I28D_T31D_L4 (antibody, V domains shown)
VH: B2 VH with P9A, T28D, S31D
VL: B2 VL
notes: as for B2
B9: hPD1.29H5_I28D_Y32D_L4 (antibody, V domains shown)
VH: B2 VH with P9A, T28D, S31T, Y32D
VL: B2 VL
notes: IgG4 S241P kappa format of the parent
B10: hPD1.29H5_I28T_T31S_L4 (antibody, V domains shown)
VH: B2 VH with P9A
VL: B2 VL
notes: as for B2
B11: hPD1.29H5_K12V_I28T_T31S_L4 (antibody, V domains shown)
VH: B2 VH with P9A, K12V
VL: B2 VL
notes: as for B2
B12: hPD1.29H5_K12V_L4 (antibody, V domains shown)
VH: B2 VH with P9A, K12V, T28I, S31T
VL: B2 VL
notes: as for B2
B13: hPD1.29H5_T30D_L4 (antibody, V domains shown)
VH: B2 VH with P9A, T28I, T30D, S31T
VL: B2 VL
notes: as for B2
B14: hPD1.29H5_T31D_L4 (antibody, V domains shown)
VH: B2 VH with P9A, T28I, S31D
VL: B2 VL
notes: as for B2
B15: hPD1.29H5_Y32D_L4 (antibody, V domains shown)
VH: B2 VH with P9A, T28I, S31T, Y32D
VL: B2 VL
notes: as for B9
B16: 5C4 (antibody, V domains shown)
VH: QVQLVQSGAEVKKPGSSVKVSCKASGFTFTTYYISWVRQAPGQGLEYLGYINMGSGGTNYNEKFKGRVTITADKSTSTAYMELSSLRSEDTAVYYCAILGYFDYWGQGTMVTVSS
VL: DVVMTQSPLSLPVTLGQPASISCRSSQSLLDSDGQTYLYWFQQRPGQSPRRLIYLVSTLGSGVPDRFSGSGSGTDFTLKISRVEAEDVGVYYCMQLTHEPYTFGQGTKLEIK

Legend:
[1] = target: Human PD-1 (Swiss-Prot entry Q15116), full length, on cells (human) (UniProt Q15116)
[2] = target: Human PD-1 (Swiss-Prot entry Q15116), full length, on cells (human) (UniProt Q15116); test: CELISA on CHO-K1.hPDCD1 cells
[3] = target: Human PD-1 (Swiss-Prot entry Q15116), full length, on cells (human) (UniProt Q15116); test: CELISA on CHO-K1.hPDCD1 cells; blocking of biotinylated hPD-L1 Fc
[4] = target: Human PD-1 (Swiss-Prot entry Q15116), full length, on cells (human) (UniProt Q15116); test: CELISA on CHO-K1.hPDCD1 cells; blocking of biotinylated hPD-L2 Fc
[5] = target: T1, hPD-1/Fc fusion protein (R&D Systems) (human, UniProt Q15116 25-167); test: BLI (Octet RED96), hPD-1/Fc amine-coupled, IgG in solution, 1:1 global fit
T1 construct: Bought reagent; also called Recombinant hPD-1/Fc; not shown: Fc part of the bought fusion protein
Protocol: This assay was, performed by coupling hPD-1/Fc fusion protein (R&D Systems) to amine-reactive second generation biosensors (Fortebio) using standard amine chemistry. […] Amine-reactive biosensors were pre-wet by immersing them in wells containing 0.1M MES pH=5.5 for 10 minutes. The biosensors were then activated using a 0.1M NHS/0.4M EDC mixture for 5 minutes. hPD-1/Fc fusion protein was coupled by immersing the biosensors in a solution of 12 ug/mL hPD-1/Fc in 0.1 M MES for 7.5 minutes. The biosensor surface was quenched using a solution of 1M ethanolamine for 5 minutes. Biosensors were equilibrated in Octet kinetics buffer (ForteBio) for 5 minutes. […] Dissociation was measured after transfer of the biosensors into kinetics buffer and monitoring of the interferometry signal for 45 minutes. The assay was run with a plate temperature of 30° C. The observed on and off rates (kobs and kd) were fit using a 1:1 binding global fit model comprising all concentrations tested, and the equilibrium binding constant KD was calculated.

[6] = target: T1, hPD-1/Fc fusion protein (R&D Systems); test: BLI competition: second antibody on hPD-1/Fc held by immobilised hPD1.29H5L4 (competitor: hPD1.29H5L4)
[7] = target: T2, Human PD-1 (Swiss-Prot entry Q15116), full length, on cells (human, UniProt Q15116 21-288); test: CELISA on CHO-K1.hPDCD1 cells; blocking of biotinylated hPD-L1 Fc
T2 construct: Full length open reading frame of hPD-1 stably expressed on CHO-K1 cells; also endogenous PD-1 on CD3/CD28-stimulated human CD3+ T cells and PD-1 on transfected Jurkat cells; also called hPD-1; hPDCD1
Protocol: (§1) To further characterize these mutant hPD-1 antibodies they were tested for binding to hPD-1 in CELISA format using CHO-K1 cells (American Type Culture Collection, Manassas, Va.), stably transfected with cDNA encoding the full length open reading frame of hPDCD1 (hPD-1), subcloned into the pCI-neo vector (Promega). Parental CHO-K1 or CHO-K1.hPDCD1 cells were seeded in culture medium (DMEM-F12 (Gibco) with 10% Fetal Bovine Serum (Hyclone) and Pen/Strep (Gibco)) in tissue culture plates and incubated for 48 hours at 37° C. Subsequently culture medium was removed and cells were incubated for 1 hour at 37° C. with the mutant hPD-1 antibodies (10 μg/ml (=66 nM) and dilutions thereof). Next, cells were washed with Phosphate-Buffered Saline/0.05% Tween (PBST) and incubated for 1 hour at 37° C. with Goat-anti-human IgG-HRP (Southern Biotech). Subsequently, cells were washed 3 times with PBST and anti-hPD1 immunoreactivity was visualized with 100 al TMB Stabilized Chromagen (Invitrogen). Reactions were stopped with 100 al 0.5 M H2SO4 and absorbances were read at 450 and 610 nm. […] Blockade of hPD-L1 binding by the mutant hPD-1 antibodies was tested in CELISA format. Parental CHO-K1 or CHO-K1.hPDCD1 cells were seeded in tissue culture plates and incubated for 72 hours at 37° C. in culture medium. Subsequently culture medium was removed and cells were incubated for 1 hour with the mutant hPD-1 antibodies (10 μg/ml (=66 nM) and dilutions thereof) at 37° C. […] Cells were then washed three times with PBST followed by addition of Streptavidin-HRP conjugate on the cells, which was incubated for 1 hour at 37° C. […] Reactions were stopped with 100 al 0.5 M H2SO4 and absorbances were read at 450 and 610 nm. Calculated IC50 values in Table 12 for the blockade of hPD-L1 represent the concentration at which half of the inhibition is observed.

[8] = target: T2, Human PD-1 (Swiss-Prot entry Q15116), …; test: CELISA on CHO-K1.hPDCD1 cells
Protocol: as §1

[9] = target: T2, Human PD-1 (Swiss-Prot entry Q15116), …; test: CELISA on CHO-K1.hPDCD1 cells; remark: listed apart in the source
Protocol: (§2) To further characterize these mutant hPD-1 antibodies they were tested for binding to hPD-1 in CELISA format using CHO-K1 cells (American Type Culture Collection, Manassas, Va.), stably transfected with cDNA encoding the full length open reading frame of hPDCD1 (hPD-1), subcloned into the pCI-neo vector (Promega). Parental CHO-K1 or CHO-K1.hPDCD1 cells were seeded in culture medium (DMEM-F12 (Gibco) with 10% Fetal Bovine Serum (Hyclone) and Pen/Strep (Gibco)) in tissue culture plates and incubated for 48 hours at 37° C. Subsequently culture medium was removed and cells were incubated for 1 hour at 37° C. with the mutant hPD-1 antibodies (10 μg/ml (=66 nM) and dilutions thereof). Next, cells were washed with Phosphate-Buffered Saline/0.05% Tween (PBST) and incubated for 1 hour at 37° C. with Goat-anti-human IgG-HRP (Southern Biotech). Subsequently, cells were washed 3 times with PBST and anti-hPD1 immunoreactivity was visualized with 100 al TMB Stabilized Chromagen (Invitrogen). Reactions were stopped with 100 al 0.5 M H2SO4 and absorbances were read at 450 and 610 nm. […] Blockade of hPD-L1 binding by the mutant hPD-1 antibodies was tested in CELISA format. […] Reactions were stopped with 100 al 0.5 M H2SO4 and absorbances were read at 450 and 610 nm. Calculated IC50 values in Table 12 for the blockade of hPD-L1 represent the concentration at which half of the inhibition is observed.

[10] = target: T2, Human PD-1 (Swiss-Prot entry Q15116), …; test: CELISA on CHO-K1.hPDCD1 cells; blocking of biotinylated hPD-L1 Fc; remark: listed apart in the source
Protocol: as §2

[11] = target: T2, Human PD-1 (Swiss-Prot entry Q15116), …; test: cell-based or functional assay
[12] = target: T2, Human PD-1 (Swiss-Prot entry Q15116), …; test: CELISA on CHO-K1.hPDCD1 cells; blocking of biotinylated hPD-L2 Fc
Protocol: Parental CHO-K1 or CHO-K1.hPDCD1 cells were seeded in tissue culture plates and incubated for 72 hours at 37° C. in culture medium. […] Cells were then washed three times with PBST followed by addition of Streptavidin-HRP conjugate on the cells, which was incubated for 1 hour at 37° C. […] Reactions were stopped with 100 al 0.5 M H₂SO₄ and absorbances were read at 450 and 610 nm. […] Calculated IC50 values represent the concentration at which half of the inhibition is observed.

T2 sequence (Q15116 21-288): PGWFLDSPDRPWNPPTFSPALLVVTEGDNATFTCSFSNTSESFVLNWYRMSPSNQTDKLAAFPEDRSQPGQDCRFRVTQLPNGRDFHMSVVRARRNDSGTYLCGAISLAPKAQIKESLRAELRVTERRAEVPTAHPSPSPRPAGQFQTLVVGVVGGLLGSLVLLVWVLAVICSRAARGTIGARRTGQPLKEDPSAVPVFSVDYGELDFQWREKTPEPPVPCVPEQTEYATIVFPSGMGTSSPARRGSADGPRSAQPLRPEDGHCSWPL
Chain of Human PD-1 (Swiss-Prot entry Q15116), full length, on cells (human) (Q15116 21-288): as above
T1 sequence (Q15116 25-167 limits assumed): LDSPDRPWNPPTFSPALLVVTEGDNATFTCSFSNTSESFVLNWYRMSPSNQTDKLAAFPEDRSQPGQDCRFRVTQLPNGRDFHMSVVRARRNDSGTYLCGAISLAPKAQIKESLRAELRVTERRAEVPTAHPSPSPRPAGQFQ

Binder	IC50 [7] [nM]	EC50 [8] [nM]	also measured
B1			IC50; NFAT-luciferase signal (RLU) of Jurkat cells expressing human PD-1, with CHO cells expressing hPD-L1 [1]: 7.27 nM; EC50 [2]: 0.1 nM; IC50 [3]: 0.45 nM; IC50 [4]: 0.57 nM; Kd [5]: 0.011 nM; koff [5]: 1.2e-05 s⁻¹; kon [5]: 1.1e+06 M⁻¹ s⁻¹; Binding (nm) [6]: 0.014 nm
B2	1.2	0.3	
B3	1.2	0.3	
B4	1.3	0.4	
B5	1.4	0.4	
B6	1.6	0.3	
B7	1.6	0.4	
B8	1.4	0.4	
B9	1.3	0.4	
B10	1.1	0.3	
B11	1.2	0.3	
B12	1.4	0.4	
B13	1.6	0.3	
B14	1.7	0.4	
B15	1.4	0.3	
B16			EC50 [9]: 0.08 nM; IC50 [10]: 0.49 nM; IC50; NFAT-luciferase signal (RLU) of Jurkat cells expressing human PD-1, with CHO cells expressing hPD-L1 [11]: 5.79 nM; Kd [5]: 0.014 nM; koff [5]: 2.9e-05 s⁻¹; kon [5]: 2.1e+06 M⁻¹ s⁻¹; IC50 [12]: 0.58 nM
